Laboratory results from patent publication US10889826B2, “Methods and compositions for producing epidermal growth factor (EGF) in soybeans” (ARIZONA BOARD OF REGENTS ON BEHALF OF THE UNIVERSITY OF …, priority 2017, dated 2021).

Assays:
[1] = Stability of rhEGF in soymilk, read out by EGFR bioactivity in Hela cells; format: physicochemical; details: in soymilk over 24 hours; bioactivity compared with control rhEGF; FIG. 5B
Protocol: (§1) Hela cells (obtained from American Tissue Culture Collection) were cultured in Minimum Essential Media (MEM) complemented with 10% Fetal Bovine Serum (FBS), 100 units/ml penicillin, and 100 μg/ml streptomycin. For western blotting assay, cells grown in 6-well plate were kept in serum free MEM media for 24 hours. Cells were then either kept in serum free medium (control) or stimulated with soymilk alone, soy EGF or commercial recombined hEGF for different time period as indicated. Cells were lysed by directly adding 1×SDS sample buffer (50 mM Tris-HCl, pH 6.8, 10% glycerol, 2% SDS and 5% 13-ME) to the cells after washing 3 times with 1×PBS. EGF bio-activity was determined via EGFR phosphorylation and down-stream AKT phosphorylation. Total EGFR was also measured since EGFR is known to undergo internalization when stimulated with EGF. Antibodies used in western blot are anti-p-EGFR (Tyr1068) (#2234, Cell Signaling Technology), anti-total EGFR (#06-847, Millipore), anti-p-AKT (#4060, Cell Signaling Technology) and anti-Lamin B1 (#13435, Cell Signaling Technology). […] EGFR was labeled using anti-EGFR antibody (#4267, Cell Signaling Technology) and detected with Alexa Fluor 594 Goat anti-rabbit IgG (#A11012, life technology). […]

Hela cell EGFR [2] = molecular target: T1, Hela cell EGFR (Homo sapiens, UniProt P00533); assay: EGF bioactivity in Hela cells by western blotting (pEGFR, total EGFR); format: cell-based; details: for overall EGF bioactivity: internalization, degradation and phosphorylation of EGFR: HeLa cells, compared with commercial rhEGF
T1 construct: soybean produced hEGF induces a rapid phosphorylation of Hela cell EGFR; endogenous in cells; host or cells: HeLa cells (American Tissue Culture Collection)
Protocol: Hela cells (obtained from American Tissue Culture Collection) were cultured in Minimum Essential Media (MEM) complemented with 10% Fetal Bovine Serum (FBS), 100 units/ml penicillin, and 100 μg/ml streptomycin. For western blotting assay, cells grown in 6-well plate were kept in serum free MEM media for 24 hours. […] Cells were lysed by directly adding 1×SDS sample buffer (50 mM Tris-HCl, pH 6.8, 10% glycerol, 2% SDS and 5% 13-ME) to the cells after washing 3 times with 1×PBS. EGF bio-activity was determined via EGFR phosphorylation and down-stream AKT phosphorylation. Total EGFR was also measured since EGFR is known to undergo internalization when stimulated with EGF. Antibodies used in western blot are anti-p-EGFR (Tyr1068) (#2234, Cell Signaling Technology), anti-total EGFR (#06-847, Millipore), anti-p-AKT (#4060, Cell Signaling Technology) and anti-Lamin B1 (#13435, Cell Signaling Technology). For immunocytochemistry assay, cells were grown on coverslip in 6-well plate and kept in serum free media for 24 hours before stimulation, cells were then either kept in serum free media (control) or stimulated with human or soy EGF for 6 hours. Cells were washed with PBS and fixed with 4% formalin. EGFR was labeled using anti-EGFR antibody (#4267, Cell Signaling Technology) and detected with Alexa Fluor 594 Goat anti-rabbit IgG (#A11012, life technology). The cell nuclei were shown using mounting medium with DAPI (#H-1200, Vectorshield).

Hela cell EGFR [3] = molecular target: T1, Hela cell EGFR; assay: Immunocytochemistry assay of EGFR internalization in Hela cells; format: cell-based; details: Hela cells treated 6 hours; FIG. 5C
Protocol: as §1

| Substance | degradation of EGF in soymilk [1] | overall EGF bioactivity: internalization, degradation and phosphorylation of EGFR (Hela cell EGFR [2]; listed as EGF protein produced in soybean seed) | overall EGF bioactivity: internalization, degradation and phosphorylation of EGFR (Hela cell EGFR [2]; listed as soybean-produced hEGF) | internalization and degradation of EGFR (decrease in abundance by immunoblot) (Hela cell EGFR [2]; Hela cells, 0.1 μg/ml, FIG. 5B) | EGFR phosphorylation (pEGFR) (Hela cell EGFR [2]; Hela cells, soymilk from ShEGF soybeans at 0.1, 0.05, 0.025 μg/ml, FIG. 5A) | EGFR degradation (Hela cell EGFR [2]; Hela cells, soymilk from seeds producing ShEGF at 0.1, 0.05, 0.025 μg/ml, FIG. 5A) | internalization of the EGFR (immunohistochemical assay) (Hela cell EGFR [3]) |
| --- | --- | --- | --- | --- | --- | --- | --- |
| rhEGF: commercial recombinant human EGF | not degraded in soymilk over 24 hours |  |  |  |  |  |  |
| ShEGF: human EGF produced in transgenic soybean seeds from a synthetic soybean codon optimized hEGF gene with N-terminal ER signal (SEQ ID NO: 1) (SLSSAENSDSECPLSHDGYCLHDGVCMYIEALDKYACNCVVGYIGERCQYRDLKWWELR; Modified EGF DNA sequence) |  | bioactive and comparable to commercially available hEGF | indistinguishable from the bioactivity of commercial rhEGF | induces an internalization and degradation of EGFR | induced pEGFR comparable to control rhEGF | induced concentration-dependent EGFR degradation comparable to the effect of rhEGF | induces internalization of the EGFR comparable to that from control rhEGF |
